According to patent US20140369940A1 (Biogen, published 2014):
Ends that are not written are not given here.

T1: human α-synuclein pepscan peptide A02 (residues 5-20) (human, also: C-terminally coupled via flexible linker to cellulose membrane)
T1 construct: Printed as residues 5-20, although a 15-mer with 11 residues overlap to A01 would be 5-19
T1 peptide: MKGLSKAKEGVVAAAE


Experiments:
[1] = target: recombinant α-synuclein truncation aa 1-60 (human, UniProt P37840 1-60); assay: direct ELISA
[2] = target: T1, human α-synuclein pepscan peptide A02 …; assay: pepscan, immunoblotting
[3] = target: T2, recombinant human β-synuclein (wt) (human, UniProt Q16143 1-134); assay: direct ELISA
T2 construct: also called wt β-synuclein
T2 sequence (Q16143 whole entry): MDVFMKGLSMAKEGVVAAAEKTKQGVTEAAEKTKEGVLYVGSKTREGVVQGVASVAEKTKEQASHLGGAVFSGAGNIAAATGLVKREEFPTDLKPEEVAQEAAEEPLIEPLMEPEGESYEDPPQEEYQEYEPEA

[4] = target: T3, synthetic biotinylated α-synuclein peptide 5-30 (human, biotinylated (position not given)); assay: in-solution ELISA, antibody coated at 2 µg/ml, biotinylated peptide
T3 construct: also called α-synuclein 5-30

Row | binding result [1] | binding result [2] | binding result [3] | binding result [4] | Binder
1 | no binding (tested: coated at 2 ug/ml) | – | – | – | recombinant human monoclonal antibody NI-202.21D11 (antibody, V domains shown, Expressed recombinantly in HEK293 or CHO cells as a complete antibody (methods: human IgG1 or chimeric mouse IgG2a constant regions); conditioned medium used directly unless otherwise stated) VH: EVQLVESGAEVKKPGASVKVSCKASGYTFTNYAMHWVRQAPGQRLEWMGWINAGNGKRKYSQKFQDRVTINRDTSASTIYMELSSLGSEDTAVYYCAREEDHAGSGSYLSMDVWGQGTLVTVSS VL: not shown
2 | – | no binding | no binding | no binding | recombinant human monoclonal antibody NI-202.12F4 (antibody, V domains shown, Lambda light chain; HEK293 or CHO conditioned medium) VH: EVQLVQSGGGLVEPGGSLRLSCAVSGFDFEKAWMSWVRQAPGQGLQWVARIKSTADGGTTSYAAPVEGRFIISRDDSRNMLYLQMNSLKTEDTAVYYCTSAHWGQGTLVTVSS VL: QSVLTQPPSVSVSPGQTARITCSGEALPMQFAHWYQQRPGKAPVIVVYKDSERPSGVPERFSGSSSGTTATLTITGVQAEDEADYYCQSPDSTNTYEVFGGGTKLTVL
